Assay results from patent US20240148898A1 (CELLEMEDY, published 2024).
Substitutions are numbered along the chain they refer to.

What was measured:
[1] = target: T1, human transferrin receptor (human, UniProt P02786 89-760, limits assumed); experiment: MST (Monolith NT.115), His-tag-dye-labelled protein, TfR titrated
T1 construct: also called TfR Human
Procedure: (§1) First, 100 μl of dye that specifically binds to a hexa-His tag (RED-tris-NTA 2nd Generation Dye) was prepared at a concentration of 50 nM, along with 100 μl of the produced protein at a concentration of 200 nM, followed by mixing the same and incubating at room temperature for 30 minutes. The incubated product was centrifuged at 13000 rpm for 10 minutes at 4° C. by a centrifuge, thus to separate the supernatant and obtain a dye-labeled protein.
(§2) Then, 25 μl of 9.65 μM transferrin receptor was added to the 1st PCR tube; 10 μl of PBS-T (PBS+0.5% tween 20) buffer was added to 2nd to 16th PCR tubes; 10 μl of transferrin in the 1st PCR tube was transferred to the 2nd PCR tube; and 10 μl was again transferred from the 2nd PCR tube to the 3rd PCR tube. Likewise, this procedure was continued up to the 16th tube thus to perform ½ dilution in a sequential order so that each of the 2nd to 16th PCR tubes becomes 20 μl.
(§3) Thereafter, 10 μl of the dye-labeled protein was added to each PCR tube, and the reaction was performed at room temperature for 1 hour.

[2] = target: T2, mouse transferrin receptor (mouse, UniProt Q62351 89-763, limits assumed); experiment: as above
T2 construct: also called TfR Mouse
Procedure: as §1, §2, §3

[3] = target: T3, transferrin receptor (TfR), species not stated; experiment: Microscale Thermophoresis (MST) with the transferrin receptor, Example 5; species of TfR not given on the sheet or in the legend (value coincides with the Mouse TfR row of Table 5)
T3 construct: also called the transferrin receptor
T3 sequence (P02786 whole entry): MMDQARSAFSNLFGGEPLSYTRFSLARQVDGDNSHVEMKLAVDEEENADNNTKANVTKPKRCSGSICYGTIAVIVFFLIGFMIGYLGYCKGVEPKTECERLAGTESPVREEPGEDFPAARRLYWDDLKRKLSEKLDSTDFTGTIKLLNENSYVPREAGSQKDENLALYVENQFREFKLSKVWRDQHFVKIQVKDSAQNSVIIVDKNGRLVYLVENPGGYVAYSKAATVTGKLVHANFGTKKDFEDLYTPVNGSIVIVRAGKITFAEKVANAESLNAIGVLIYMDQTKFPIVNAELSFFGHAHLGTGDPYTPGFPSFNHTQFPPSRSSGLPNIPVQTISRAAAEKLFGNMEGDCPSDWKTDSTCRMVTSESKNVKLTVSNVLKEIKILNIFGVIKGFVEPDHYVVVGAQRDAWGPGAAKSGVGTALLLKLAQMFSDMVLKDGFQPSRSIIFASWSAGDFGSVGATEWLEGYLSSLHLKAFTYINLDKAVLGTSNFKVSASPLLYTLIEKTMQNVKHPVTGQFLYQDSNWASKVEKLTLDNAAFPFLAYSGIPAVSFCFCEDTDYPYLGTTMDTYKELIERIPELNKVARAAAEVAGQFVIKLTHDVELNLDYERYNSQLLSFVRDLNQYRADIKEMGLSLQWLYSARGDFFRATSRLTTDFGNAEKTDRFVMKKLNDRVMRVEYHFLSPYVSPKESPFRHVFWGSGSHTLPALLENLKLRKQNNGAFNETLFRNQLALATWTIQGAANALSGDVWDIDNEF

T1 sequence (P02786 89-760 limits assumed): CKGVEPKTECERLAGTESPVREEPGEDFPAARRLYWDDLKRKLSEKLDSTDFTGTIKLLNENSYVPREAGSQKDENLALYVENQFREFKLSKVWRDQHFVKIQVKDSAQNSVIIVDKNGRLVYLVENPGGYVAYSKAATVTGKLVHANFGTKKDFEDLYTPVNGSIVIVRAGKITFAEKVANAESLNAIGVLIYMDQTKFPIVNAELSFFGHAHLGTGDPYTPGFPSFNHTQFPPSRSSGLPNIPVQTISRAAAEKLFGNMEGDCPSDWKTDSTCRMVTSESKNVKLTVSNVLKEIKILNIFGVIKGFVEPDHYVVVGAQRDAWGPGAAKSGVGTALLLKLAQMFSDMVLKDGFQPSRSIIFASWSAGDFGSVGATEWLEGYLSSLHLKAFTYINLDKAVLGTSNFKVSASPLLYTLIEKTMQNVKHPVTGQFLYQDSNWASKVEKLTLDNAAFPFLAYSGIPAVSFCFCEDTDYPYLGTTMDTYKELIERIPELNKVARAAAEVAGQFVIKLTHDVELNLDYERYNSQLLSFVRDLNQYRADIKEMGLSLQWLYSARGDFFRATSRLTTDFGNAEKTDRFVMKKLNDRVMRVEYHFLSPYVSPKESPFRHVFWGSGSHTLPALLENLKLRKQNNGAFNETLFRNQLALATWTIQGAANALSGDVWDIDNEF
T2 sequence (Q62351 89-763 limits assumed): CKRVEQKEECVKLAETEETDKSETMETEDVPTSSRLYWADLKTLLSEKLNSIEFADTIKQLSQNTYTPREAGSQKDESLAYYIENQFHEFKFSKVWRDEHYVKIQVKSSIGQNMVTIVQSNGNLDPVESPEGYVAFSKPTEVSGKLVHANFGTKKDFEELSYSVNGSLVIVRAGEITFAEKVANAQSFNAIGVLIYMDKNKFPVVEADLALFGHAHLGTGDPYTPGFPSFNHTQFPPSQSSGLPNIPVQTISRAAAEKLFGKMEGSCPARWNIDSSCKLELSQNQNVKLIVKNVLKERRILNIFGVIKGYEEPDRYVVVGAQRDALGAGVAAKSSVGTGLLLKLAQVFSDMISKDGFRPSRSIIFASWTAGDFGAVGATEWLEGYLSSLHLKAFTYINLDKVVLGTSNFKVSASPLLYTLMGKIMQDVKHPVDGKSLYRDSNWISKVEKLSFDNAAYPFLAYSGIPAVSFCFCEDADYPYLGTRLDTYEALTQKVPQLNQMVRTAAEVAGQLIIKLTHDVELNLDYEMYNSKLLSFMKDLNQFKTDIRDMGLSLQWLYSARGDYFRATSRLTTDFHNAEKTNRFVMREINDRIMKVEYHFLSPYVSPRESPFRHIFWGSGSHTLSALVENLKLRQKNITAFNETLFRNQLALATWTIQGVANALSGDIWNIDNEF

B1: EC-gp100-huHF (other)
chain: MHHHHHHEFTTASTSQVRQNYHQDSEAAINRQINLELYASYVYLSMSYYFDRDDVALKNFAKYFLHQSHEEREHAEKLMKLQNQRGGRIFLQDIKKPDCDDWESGLNAMECALHLEKNVNQSLLELHKLATDKNDPHLCDFIETHYLNEQVKAIKELGDHVTNLRKMGAPESGLAEYLFDKHTLGDSKVPRNQDWLDNES
modifications: One monomer is given; the particle is a self-assembled 24-mer. In the MST assay the His tag carried RED-tris-NTA dye non-covalently.
notes: also called gp100 fused between E helix and C-terminus; TSA insertion site EC, gp100
Kd [1]: 5.68 nM

B2: DE-gp100-huHF (other)
chain: MHHHHHHLETTASTSQVRQNYHQDSEAAINRQINLELYASYVYLSMSYYFDRDDVALKNFAKYFLHQSHEEREHAEKLMKLQNQRGGRIFLQDIKKPDCDDWESGLNAMECALHLEKNVNQSLLELHKLATDKNDPHLCDFIETHYLNEQVKAIKELGDHVTNLRKMGAPEGSKVPRNQDWLEFSGLAEYLFDKHTLGDSDNES
modifications: One monomer is given; the particle is a self-assembled 24-mer. In the MST assay the His tag carried RED-tris-NTA dye non-covalently.
notes: also called huHF-DE-gp100; gp100-huHF (DE loop)
Kd [1]: 9.78 nM
Kd [2]: 30.5 nM
Kd [3]: 30.5 nM

B3: AB-gp100-huHF (other)
chain: HHHHHHMTTASTSQVRQNYHQDSEAAINRQINLELYASYVYLSMSYYFDRDDKVPRNQDWLVALKNFAKYFLHQSHEEREHAEKLMKLQNQRGGRIFLQDIKKPDCDDWESGLNAMECALHLEKNVNQSLLELHKLATDKNDPHLCDFIETHYLNEQVKAIKELGDHVTNLRKMGAPESGLAEYLFDKHTLGDSDNES
notes: also called gp100-huHF (AB loop); TSA insertion site AB, gp100
Kd [1]: 29.7 nM
Kd [2]: 40.8 nM

B4: AB-AH1-huHF (other)
chain: B3 chain with K53S, V54P, P55S, R56Y, N57V, Q58Y, D59H, W60Q, L61F
notes: also called AH1-huHF (AB loop); TSA insertion site AB, AH1
Kd [1]: 10.9 nM

B5: NA-gp100-huHF (other)
chain: MHHHHHHTTASTSKVPRNQDWLQVRQNYHQDSEAAINRQINLELYASYVYLSMSYYFDRDDVALKNFAKYFLHQSHEEREHAEKLMKLQNQRGGRIFLQDIKKPDCDDWESGLNAMECALHLEKNVNQSLLELHKLATDKNDPHLCDFIETHYLNEQVKAIKELGDHVTNLRKMGAPESGLAEYLFDKHTLGDSDNES
modifications: One monomer is given; the particle is a self-assembled 24-mer. In the MST assay the His tag carried RED-tris-NTA dye non-covalently.
notes: also called gp100 fused between N-terminus and A helix; TSA insertion site NA, gp100
Kd [1]: 152 nM

B6: CD-gp100-huHF (other)
chain: HHHHHHMTTASTSQVRQNYHQDSEAAINRQINLELYASYVYLSMSYYFDRDDVALKNFAKYFLHQSHEEREHAEKLMKLQNQRGGRIFLQDIKKPDCDDWESGLNAMECALHLEKNVNQSLLELHKLATDKNDKVPRNQDWLPHLCDFIETHYLNEQVKAIKELGDHVTNLRKMGAPESGLAEYLFDKHTLGDSDNES
notes: also called CD-loop-gp100; huHF-CD-gp100
Kd [1]: 4.89 nM
Kd [2]: 15.9 nM

B7: CD-AH1-huHF (other)
chain: B6 chain with K134S, V135P, P136S, R137Y, N138V, Q139Y, D140H, W141Q, L142F
notes: also called huHF-CD loop-AH1; CD-loop-AH1
Kd [1]: 3.45 nM

B8: BC-gp100-huHF (other)
chain: HHHHHHMTTASTSQVRQNYHQDSEAAINRQINLELYASYVYLSMSYYFDRDDVALKNFAKYFLHQSHEEREHAEKLMKLQNQRGGRIFLQDIKKPDCDDKVPRNQDWLWESGLNAMECALHLEKNVNQSLLELHKLATDKNDPHLCDFIETHYLNEQVKAIKELGDHVTNLRKMGAPESGLAEYLFDKHTLGDSDNES
notes: also called gp100-huHF (BC loop); TSA insertion site BC, gp100
Kd [1]: 14 nM
Kd [2]: 48 nM

B9: BC-AH1-huHF (other)
chain: B8 chain with K100S, V101P, P102S, R103Y, N104V, Q105Y, D106H, W107Q, L108F
notes: also called AH1-huHF (BC loop); TSA insertion site BC, AH1
Kd [1]: 107 nM

B10: DE-AH1-huHF (other)
chain: HHHHHHMTTASTSQVRQNYHQDSEAAINRQINLELYASYVYLSMSYYFDRDDVALKNFAKYFLHQSHEEREHAEKLMKLQNQRGGRIFLQDIKKPDCDDWESGLNAMECALHLEKNVNQSLLELHKLATDKNDPHLCDFIETHYLNEQVKAIKELGDHVTNLRKMGAPESPSYVYHQFSGLAEYLFDKHTLGDSDNES
notes: also called AH1-huHF (DE loop); TSA insertion site DE, AH1
Kd [1]: 6.11 nM
